Experimental data reported in the supplement of paper PMC6757056.
± gives the standard deviation of the averaged measurements.

B1: library; a variant is named by its letters at N, in order (parent)
chain: GCUGUCACCGGUGCUUGGUACGUUAUAUUCAGCCGGUCUGAUGAGUCUNNNNNNAGACGAAACAGC

Tests used:
(6R,S)-folinic acid [1] = variants of: B1; assay: normalized RNA/DNA level without ligand (relative to sTRSVctl = 100) (log10 (% of sTRSVctl)); HEK293T overexpressing SLC46A1; higher = less ribozyme self-cleavage, higher mRNA level; details: without (6R,S)-folinic acid; ligand present: no
In short: (§1)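 HEK293T cells received ligand, where used, 1 h before being transfected with 4 µg per 6-well well of library plasmids encoding reporter-linked ribozyme switches. After 72 h, RNA was extracted with EDTA and sequenced. RNA level was derived from RNA reads per DNA read, normalized to a spiked-in non-cleaving sequence or the top sequences, then scaled and log-transformed. Values were ×100 then log10, the top set was 25 sequences, and the minimum was 100 DNA reads.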

(6R,S)-folinic acid [2] = variants of: B1; assay: normalized RNA/DNA level with ligand (relative to sTRSVctl = 100) (log10 (% of sTRSVctl)); HEK293T overexpressing SLC46A1; ligand concentration (+) RNA-Seq: 6 mM; higher = less ribozyme self-cleavage, higher mRNA level; details: with (6R,S)-folinic acid; ligand present: yes
In short: as §1

Variant | normalized RNA/DNA level without ligand (log10) ((6R,S)-folinic acid [1]) | normalized RNA/DNA level with ligand (log10) ((6R,S)-folinic acid [2])
AGAGCG | 1.775 ± 0.0033 | 1.97 ± 0.029
AGAGCA | 1.977 ± 0.0046 | 2.01 ± 0.051
AGAGCC | 2.05 ± 0.003 | 2.04 ± 0.045
GGAGUG | 1.915 ± 0.004 | 2.01 ± 0.029
GGAGUU | 2.011 ± 0.0026 | 2.05 ± 0.039
GGAGUC | 2.02 ± 0.023 | 2.01 ± 0.024
AGCACA | 2.0177 ± 0.00097 | 2 ± 0.04
AGCACC | 2.08 ± 0.031 | 2 ± 0.03
AGCACG | 1.99 ± 0.033 | 2.025 ± 0.01
AGCCCC | 2.051 ± 0.0083 | 2 ± 0.036
AGCCCG | 2.02 ± 0.0096 | 2.02 ± 0.0065
AGCCCA | 2.045 ± 0.0089 | 2.02 ± 0.028
AGCCCU | 2.078 ± 0.009 | 2.05 ± 0.042
GGACGG | 2.008 ± 0.015 | 2.04 ± 0.033
GGACGC | 1.949 ± 0.0027 | 1.96 ± 0.025
CGAAGU | 1.99 ± 0.03 | 2 ± 0.032
CGAAGG | 1.859 ± 0.012 | 1.94 ± 0.022
UGCAUA | 1.948 ± 0.015 | 1.99 ± 0.068
UGCAUC | 2.07 ± 0.032 | 2.035 ± 0.015

Variant | normalized RNA/DNA level without ligand (log10) ((6R,S)-folinic acid [1]) | normalized RNA/DNA level with ligand (log10) ((6R,S)-folinic acid [2])
GGCCGA | 2.081 ± 0.0077 | 2.05 ± 0.037
GGCCCG | 2.07 ± 0.0078 | 2.07 ± 0.023
GGCCCU | 2.099 ± 0.012 | 2.061 ± 0.013
GGCCCC | 2.023 ± 0.0026 | 2.01 ± 0.026
GGCCCA | 2.053 ± 0.01 | 2.032 ± 0.012
GGAUCG | 2.0373 ± 0.00033 | 2.08 ± 0.045
GGAUCU | 2.037 ± 0.0059 | 2.03 ± 0.045
GGAUCA | 2.02 ± 0.021 | 2.03 ± 0.05
GGAUCC | 2.0688 ± 0.00086 | 2.06 ± 0.037
UGCACA | 1.97 ± 0.024 | 2.01 ± 0.036
UGCACC | 2.036 ± 0.0046 | 1.98 ± 0.028
UGCACU | 2.017 ± 0.0058 | 2.04 ± 0.033
UGCACG | 1.8081 ± 0.0015 | 1.977 ± 0.013
AGACUU | 2.021 ± 0.0033 | 1.99 ± 0.024
AGACUG | 2.003 ± 0.0063 | 2.01 ± 0.04
AGACUA | 1.977 ± 0.0092 | 1.98 ± 0.043
AGACUC | 2.038 ± 0.0045 | 2.05 ± 0.021
AGAGGA | 1.929 ± 0.014 | 2.02 ± 0.039
AGAGGG | 1.78 ± 0.02 | 2.01 ± 0.015

Variant | normalized RNA/DNA level without ligand (log10) ((6R,S)-folinic acid [1]) | normalized RNA/DNA level with ligand (log10) ((6R,S)-folinic acid [2])
AGAGGU | 1.889 ± 0.0033 | 2 ± 0.076
AGAGGC | 2.018 ± 0.02 | 2.01 ± 0.04
UGAUGC | 1.954 ± 0.013 | 1.998 ± 0.01
GGCAUG | 2.064 ± 0.0071 | 2.03 ± 0.033
GGCAUC | 2.055 ± 0.014 | 2.03 ± 0.033
GGCAUU | 2.08 ± 0.025 | 2.04 ± 0.039
UGAUCA | 1.99 ± 0.021 | 2 ± 0.038
UGAUCC | 2.059 ± 0.012 | 2.03 ± 0.049
UGAUCU | 1.995 ± 0.012 | 2.04 ± 0.091
GGAGCA | 1.978 ± 0.0021 | 2.02 ± 0.022
GGAGCU | 2.045 ± 0.017 | 2.04 ± 0.04
GGAGCG | 1.939 ± 0.011 | 2.02 ± 0.041
CGAUGG | 1.928 ± 0.017 | 1.972 ± 0.019
CGAUGU | 1.98 ± 0.0073 | 1.99 ± 0.047
CGAUGA | 2.011 ± 0.0023 | 2.02 ± 0.078
CGAUGC | 2.039 ± 0.0072 | 2.008 ± 0.0096
UGAAUA | 1.965 ± 0.0093 | 2.03 ± 0.026
UGAAUC | 2.07 ± 0.021 | 2.06 ± 0.047
UGAAUU | 1.986 ± 0.0089 | 2 ± 0.036
